Measured values from publication PMC5673899, “Structural basis for receptor recognition of pollen tube attraction peptides” (Nature Communications, 2017).
“Also recorded” adds a separate entry of the source.

Legend:
MIK2^LRR = test: ITC, AtLURE1.2 titrated into MIK2^LRR; assay type: binding, Arabidopsis; settings: 25 °C, 200 mM HEPES pH 7.0, 100 mM NaCl, as for MIK1LRR (0.5 mM AtLURE1.2 into 0.05 mM)
Source text: (§1) The genes of AtPRK3 ^LRR (residues 1–241), AtPRK4 ^LRR (residues 1–277), AtPRK5 ^LRR (residues 1–279), AtPRK6 ^LRR (residues 1–262), MIK1 ^LRR (residues 1–633), MIK2 ^LRR (residues 1–707) were amplified from Arabidopsis cDNA library by PCR and cloned into pFastBac-1 vector with a C-terminal 6 × His-tag. Their identities were confirmed by sequencing. The mature form of AtLURE1.1 (residues 20–94), AtLURE1.2 (residues 20–90), AtLURE1.3 (residues 21–91), and AtLURE1.4 (residues 20–90) were cloned into pFastBac-1 vector, with a modified N-terminal hemolin signal peptide and 6 × His-SUMO tag. Point mutation constructs were generated by QuickChange Site-Directed Mutagenesis Kit (Strategene). All the proteins were expressed using the Bac-to-Bac baculovirus expression system (Invitrogen) in High Five cells at 22 °C. One liter of High Five cells (2.0 × 10^6 cells mL^−1) cultured in the medium from Expression Systems was infected with 25 ml recombinant baculovirus and the media was collected after 72 h of infection. Secreted LRR proteins were purified using Ni-NTA (Novagen) and size-exclusion chromatography (Hiload 200, GE Healthcare) in buffer containing 10 mM Bis-Tris pH 6.0 and 100 mM NaCl. […]
Supplementary Figure 6: Binding affinity between MIK1LRR, MIK2LRR and AtLURE1.2 was not detected in ITC assay. […]

MIK1^LRR = test: In vitro pull-down with MIK1^LRR; assay type: binding, Arabidopsis; settings: Ni-NTA, excess AtLURE1.2, on ice 30 min, washed five times; SDS-PAGE, Coomassie blue
Source text: as §1
The purified His-tagged ectodomains of AtPRK proteins and MIK1, 2 were used to pull-down the AtLURE1.2 peptide. […] All the eluted samples were analyzed by SDS-PAGE and visualized by Coomassie blue staining. […]

B1: AtLURE1.2: mature form of AtLURE1.2 (residues 20–90), defensin-like cysteine-rich peptide expressed in insect cells (protein)
chain: TLINGSSDEERTYSFSPTTSPFDPRSLNQELKIGRIGYCFDCARACMRRGKYIRTCSFERKLCRCSISDIK
modifications: left off: His6, N-terminal, cleaved | SUMO, N-terminal, cleaved
notes: mature form of AtLURE1.2 (residues 20–90), defensin-like cysteine-rich peptide expressed in insect cells
binding in ITC (MIK2^LRR): not detected; also recorded: no obvious heat was produced; also recorded: none of the purified AtPRK3^LRR, MIK1^LRR or MIK2^LRR proteins showed detectable interaction
interaction in pull-down assay (MIK1^LRR): none of the other LRR proteins was found to interact
